The values that follow come from paper PMC7193532 (Acta Crystallographica. Section D, Structural Biology, 2020).

Where “and” joins values, the source holds several entries; their conditions need not be identical. Equal values may be shown once.

This assay concerns the target the Ala and ValAla insertions and the Met1Ala substitution and Ala insertion. The experiment in a line: SPR. A general note: Surface plasmon resonance follows binding to a sensor surface in real time, without labels.

Consider rufomycin I (RUF-I) (peptide), for which the fold reduction in binding affinity against wild type was 13 fold and 16 fold.
